In paper PMC4193804 one finds Kd and fold higher affinity than the WT MBP peptide data, which are given here for four substances.

Test [1] deals with Hy.1B11 TCR with biotinylated C-terminal BirA tag (human). Kind of test: SPR.
Test [2] deals with HLA-DQ1 (DQA1*0102, DQB1*0502), supplied as DQ1/CLIP for peptide-binding assays (human). Kind of test: ELISA. Background: An ELISA detects its analyte on a solid surface through an enzyme-linked reagent.
Test [3] addresses HLA-DQ1 (DQA1*0102, DQB1*0502) loaded with the myelin basic protein peptide (res. 85–99) (human). Nature of the test: SPR. For orientation: In SPR one partner is held on a chip, and binding of the other changes the refractive index at the surface.

For orientation: Kd means the constant that tells how readily two partners part at equilibrium. In the case of “HLA-DQ1 (DQA1*0102, DQB1*0502) loaded with the myelin basic protein peptide (res. 85–99) (peptide-MHC)”, the Kd in test [1] was found to be 6.96 µM.
Substance “MBP 85–99 analogue peptide with P6 Asn to Asp substitution” yielded a fold higher affinity than the WT MBP peptide in test [2] of 10 fold.
In the case of “HLA-DQ1 (DQA1*0102, DQB1*0502) loaded with the Pseudomonas aeruginosa phosphomannomutase peptide PMM 260–274 (from UniProt P26276 260-274) (peptide-MHC)”, the Kd in test [1] was found to be 57.3 µM.
The substance “Hy.1B11 T cell receptor (TCR), wild type, soluble” displayed a Kd in test [3] of 14.3 µM.
